Reference: PMC9482650, “Quantitative fragmentomics allow affinity mapping of interactomes” (Nature Communications, 2022)

T1: SNTG2, Q9NY99
T1 sequence (Q9NY99 68-166, limits assumed, looked up): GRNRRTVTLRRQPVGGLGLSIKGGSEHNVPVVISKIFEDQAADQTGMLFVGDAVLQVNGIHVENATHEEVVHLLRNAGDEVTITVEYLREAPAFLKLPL

T2: TIAM2, Q8IVF5
T2 sequence (Q8IVF5 885-986, limits assumed, looked up): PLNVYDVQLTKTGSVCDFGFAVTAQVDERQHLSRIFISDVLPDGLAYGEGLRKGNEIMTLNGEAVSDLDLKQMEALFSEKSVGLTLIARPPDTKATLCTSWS

T3: PARD3B_1, Q8TEW8
T3 sequence (Q8TEW8 196-299, limits assumed, looked up): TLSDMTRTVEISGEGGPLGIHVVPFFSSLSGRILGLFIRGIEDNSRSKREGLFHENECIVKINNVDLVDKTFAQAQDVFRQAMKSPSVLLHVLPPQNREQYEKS

T4: NHERF3_3, Q5T2W1
T4 sequence (Q5T2W1 238-333, limits assumed, looked up): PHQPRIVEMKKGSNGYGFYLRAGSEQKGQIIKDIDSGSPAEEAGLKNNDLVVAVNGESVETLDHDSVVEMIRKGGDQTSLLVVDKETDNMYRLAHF

T5: LRRC7, Q96NW7
T5 sequence (Q96NW7 1440-1537, limits assumed, looked up): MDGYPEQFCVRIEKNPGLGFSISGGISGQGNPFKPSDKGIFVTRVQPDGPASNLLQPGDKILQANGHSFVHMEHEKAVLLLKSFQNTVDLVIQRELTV

T6: SNTG1, Q9NSN8
T6 sequence (Q9NSN8 52-150, limits assumed, looked up): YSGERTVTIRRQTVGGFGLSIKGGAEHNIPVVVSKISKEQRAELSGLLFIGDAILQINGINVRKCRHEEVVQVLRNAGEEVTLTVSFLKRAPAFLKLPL

T7: NHERF3_1, Q5T2W1
T7 sequence (Q5T2W1 4-100, limits assumed, looked up): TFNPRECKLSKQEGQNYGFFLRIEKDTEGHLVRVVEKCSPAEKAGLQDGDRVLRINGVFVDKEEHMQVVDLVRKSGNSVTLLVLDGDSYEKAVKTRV

T8: MPP6, Q9NZW5
T8 sequence (Q9NZW5 125-219, limits assumed, looked up): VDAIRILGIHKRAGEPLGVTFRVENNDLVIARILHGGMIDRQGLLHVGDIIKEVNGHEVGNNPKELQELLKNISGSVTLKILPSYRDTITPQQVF

B1: CES3, Q6UWW8 (peptide)
chain: QKNRKAQEDL
B2: EPHB3, P54753 (peptide)
chain: QMNQTLPVQV

biological target: PICK1, Q9NRD5; assay: holdup assay; design: key: below the threshold = too weak to quantify, mostly under pKd 3.1 to 4; details: plain residues with an end cap or a label only (N-terminal biotin on a linker: ado-ado)
Sequence (Q9NRD5 17-115): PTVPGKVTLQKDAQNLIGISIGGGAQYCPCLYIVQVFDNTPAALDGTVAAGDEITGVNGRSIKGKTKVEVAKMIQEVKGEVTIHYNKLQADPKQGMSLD

pKd | Binder
4 | B1
4.35 | B2

biological target: IL16_1, Q14005; assay: holdup assay; design: key: below the threshold = too weak to quantify, mostly under pKd 3.1 to 4; details: plain residues with an end cap or a label only (N-terminal biotin on a linker: ado-ado)
Sequence (Q14005 210-306): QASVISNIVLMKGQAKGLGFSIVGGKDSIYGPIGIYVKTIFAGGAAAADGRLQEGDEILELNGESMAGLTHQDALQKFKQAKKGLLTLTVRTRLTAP

pKd | Binder
below the threshold | B1
below the threshold | B2

biological target: GRASP, Q7Z6J2; assay: holdup assay; design: key: below the threshold = too weak to quantify, mostly under pKd 3.1 to 4; details: plain residues with an end cap or a label only (N-terminal biotin on a linker: ado-ado)
Sequence (Q7Z6J2 96-193): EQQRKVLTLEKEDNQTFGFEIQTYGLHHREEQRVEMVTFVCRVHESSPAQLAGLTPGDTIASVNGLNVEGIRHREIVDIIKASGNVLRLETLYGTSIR

pKd | Binder
below the threshold | B1
below the threshold | B2

biological target: T1, SNTG2, Q9NY99; assay: holdup assay; design: key: below the threshold = too weak to quantify, mostly under pKd 3.1 to 4; details: plain residues with an end cap or a label only (N-terminal biotin on a linker: ado-ado)

pKd | Binder
below the threshold | B1
below the threshold | B2

biological target: Inadl_1, Q8NI35; assay: holdup assay; design: key: below the threshold = too weak to quantify, mostly under pKd 3.1 to 4; details: plain residues with an end cap or a label only (N-terminal biotin on a linker: ado-ado)
Sequence (Q8NI35 113-229): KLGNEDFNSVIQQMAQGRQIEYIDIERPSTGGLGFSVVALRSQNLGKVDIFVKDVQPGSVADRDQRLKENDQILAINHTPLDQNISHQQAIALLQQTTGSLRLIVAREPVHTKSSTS

pKd | Binder
below the threshold | B1
below the threshold | B2

biological target: T2, TIAM2, Q8IVF5; assay: holdup assay; design: key: below the threshold = too weak to quantify, mostly under pKd 3.1 to 4; details: plain residues with an end cap or a label only (N-terminal biotin on a linker: ado-ado)

pKd | Binder
4.08 | B1
below the threshold | B2

biological target: DLG1_2, Q12959; assay: holdup assay; design: key: below the threshold = too weak to quantify, mostly under pKd 3.1 to 4; details: plain residues with an end cap or a label only (N-terminal biotin on a linker: ado-ado)
Sequence (Q12959 314-412): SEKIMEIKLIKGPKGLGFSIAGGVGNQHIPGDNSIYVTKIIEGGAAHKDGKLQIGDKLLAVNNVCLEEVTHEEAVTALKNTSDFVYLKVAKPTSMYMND

pKd | Binder
below the threshold | B1
below the threshold | B2

biological target: Inadl_3, Q8NI35; assay: holdup assay; design: key: below the threshold = too weak to quantify, mostly under pKd 3.1 to 4; details: plain residues with an end cap or a label only (N-terminal biotin on a linker: ado-ado)
Sequence (Q8NI35 359-469): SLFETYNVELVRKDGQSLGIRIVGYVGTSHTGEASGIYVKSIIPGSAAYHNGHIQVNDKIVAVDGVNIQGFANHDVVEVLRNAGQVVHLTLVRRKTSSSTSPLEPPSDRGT

pKd | Binder
below the threshold | B1
3.55 | B2

biological target: T3, PARD3B_1, Q8TEW8; assay: holdup assay; design: key: below the threshold = too weak to quantify, mostly under pKd 3.1 to 4; details: plain residues with an end cap or a label only (N-terminal biotin on a linker: ado-ado)

pKd | Binder
below the threshold | B1
3.78 | B2

biological target: TJP1_3, Q07157; assay: holdup assay; design: key: below the threshold = too weak to quantify, mostly under pKd 3.1 to 4; details: plain residues with an end cap or a label only (N-terminal biotin on a linker: ado-ado)
Sequence (Q07157 416-512): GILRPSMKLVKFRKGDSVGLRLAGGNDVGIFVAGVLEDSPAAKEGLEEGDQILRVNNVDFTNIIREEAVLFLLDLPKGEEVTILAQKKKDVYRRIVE

pKd | Binder
below the threshold | B1
below the threshold | B2

biological target: NHERF4_4, Q86UT5; assay: holdup assay; design: key: below the threshold = too weak to quantify, mostly under pKd 3.1 to 4; details: plain residues with an end cap or a label only (N-terminal biotin on a linker: ado-ado)
Sequence (Q86UT5 464-550): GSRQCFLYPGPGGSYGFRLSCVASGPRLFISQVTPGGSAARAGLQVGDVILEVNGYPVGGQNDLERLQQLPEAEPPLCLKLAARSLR

pKd | Binder
below the threshold | B1
3.92 | B2

biological target: DLG4_2, P78352; assay: holdup assay; design: key: below the threshold = too weak to quantify, mostly under pKd 3.1 to 4; details: plain residues with an end cap or a label only (N-terminal biotin on a linker: ado-ado)
Sequence (P78352 155-259): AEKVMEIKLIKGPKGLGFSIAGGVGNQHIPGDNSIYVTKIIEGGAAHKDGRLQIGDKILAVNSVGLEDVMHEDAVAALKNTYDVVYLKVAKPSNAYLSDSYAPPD

pKd | Binder
below the threshold | B1
3.66 | B2

biological target: T4, NHERF3_3, Q5T2W1; assay: holdup assay; design: key: below the threshold = too weak to quantify, mostly under pKd 3.1 to 4; details: plain residues with an end cap or a label only (N-terminal biotin on a linker: ado-ado)

pKd | Binder
below the threshold | B1
below the threshold | B2

biological target: T5, LRRC7, Q96NW7; assay: holdup assay; design: key: below the threshold = too weak to quantify, mostly under pKd 3.1 to 4; details: plain residues with an end cap or a label only (N-terminal biotin on a linker: ado-ado)

pKd | Binder
below the threshold | B1
below the threshold | B2

biological target: IL16_4, Q14005; assay: holdup assay; design: key: below the threshold = too weak to quantify, mostly under pKd 3.1 to 4; details: plain residues with an end cap or a label only (N-terminal biotin on a linker: ado-ado)
Sequence (Q14005 1229-1329): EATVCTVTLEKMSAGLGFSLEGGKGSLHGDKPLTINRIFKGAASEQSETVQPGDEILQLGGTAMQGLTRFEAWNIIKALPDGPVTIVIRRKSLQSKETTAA

pKd | Binder
3.63 | B1
3.77 | B2

biological target: MAST2, Q6P0Q8; assay: holdup assay; design: key: below the threshold = too weak to quantify, mostly under pKd 3.1 to 4; details: plain residues with an end cap or a label only (N-terminal biotin on a linker: ado-ado)
Sequence (Q6P0Q8 1099-1202): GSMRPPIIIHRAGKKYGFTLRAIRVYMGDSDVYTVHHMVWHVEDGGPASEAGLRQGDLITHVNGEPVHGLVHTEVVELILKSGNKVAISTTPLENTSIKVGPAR

pKd | Binder
below the threshold | B1
4.1 | B2

biological target: PTPN3, P26045; assay: holdup assay; design: key: below the threshold = too weak to quantify, mostly under pKd 3.1 to 4; details: plain residues with an end cap or a label only (N-terminal biotin on a linker: ado-ado)
Sequence (P26045 505-587): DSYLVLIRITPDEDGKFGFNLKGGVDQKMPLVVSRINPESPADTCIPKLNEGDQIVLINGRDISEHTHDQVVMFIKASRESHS

pKd | Binder
3.74 | B1
3.97 | B2

biological target: T6, SNTG1, Q9NSN8; assay: holdup assay; design: key: below the threshold = too weak to quantify, mostly under pKd 3.1 to 4; details: plain residues with an end cap or a label only (N-terminal biotin on a linker: ado-ado)

pKd | Binder
below the threshold | B1
below the threshold | B2

biological target: GRIP2_6, Q9C0E4; assay: holdup assay; design: key: below the threshold = too weak to quantify, mostly under pKd 3.1 to 4; details: plain residues with an end cap or a label only (N-terminal biotin on a linker: ado-ado)
Sequence (Q9C0E4 648-740): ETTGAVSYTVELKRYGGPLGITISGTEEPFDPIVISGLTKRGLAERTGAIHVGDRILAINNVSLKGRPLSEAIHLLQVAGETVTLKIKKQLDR

pKd | Binder
below the threshold | B1
below the threshold | B2

biological target: T7, NHERF3_1, Q5T2W1; assay: holdup assay; design: key: below the threshold = too weak to quantify, mostly under pKd 3.1 to 4; details: plain residues with an end cap or a label only (N-terminal biotin on a linker: ado-ado)

pKd | Binder
below the threshold | B1
3.48 | B2

biological target: LAP2, Q96RT1; assay: holdup assay; design: key: below the threshold = too weak to quantify, mostly under pKd 3.1 to 4; details: plain residues with an end cap or a label only (N-terminal biotin on a linker: ado-ado)
Sequence (Q96RT1 other isoform, or with tags, fused parts or gaps): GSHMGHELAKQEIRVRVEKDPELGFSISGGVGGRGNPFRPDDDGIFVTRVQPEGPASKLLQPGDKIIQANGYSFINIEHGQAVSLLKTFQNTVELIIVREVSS

pKd | Binder
below the threshold | B1
below the threshold | B2

biological target: DLG1_3, Q12959; assay: holdup assay; design: key: below the threshold = too weak to quantify, mostly under pKd 3.1 to 4; details: plain residues with an end cap or a label only (N-terminal biotin on a linker: ado-ado)
Sequence (Q12959 457-571): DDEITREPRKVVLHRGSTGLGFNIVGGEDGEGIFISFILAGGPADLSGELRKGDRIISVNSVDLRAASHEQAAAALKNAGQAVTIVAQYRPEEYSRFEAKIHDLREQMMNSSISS

pKd | Binder
below the threshold | B1
3.76 | B2

biological target: LIMK2, P53671; assay: holdup assay; design: key: below the threshold = too weak to quantify, mostly under pKd 3.1 to 4; details: plain residues with an end cap or a label only (N-terminal biotin on a linker: ado-ado)
Sequence (P53671 143-248): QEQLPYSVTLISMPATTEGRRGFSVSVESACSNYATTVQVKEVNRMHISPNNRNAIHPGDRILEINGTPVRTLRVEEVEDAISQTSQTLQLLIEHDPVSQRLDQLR

pKd | Binder
below the threshold | B1
below the threshold | B2

biological target: LDB3, O75112; assay: holdup assay; design: key: below the threshold = too weak to quantify, mostly under pKd 3.1 to 4; details: plain residues with an end cap or a label only (N-terminal biotin on a linker: ado-ado)
Sequence (O75112 1-94): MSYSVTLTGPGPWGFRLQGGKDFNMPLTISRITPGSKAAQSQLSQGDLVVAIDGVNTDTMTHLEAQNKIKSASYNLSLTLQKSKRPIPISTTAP

pKd | Binder
below the threshold | B1
below the threshold | B2

biological target: PARD3_3, Q8TEW0; assay: holdup assay; design: key: below the threshold = too weak to quantify, mostly under pKd 3.1 to 4; details: plain residues with an end cap or a label only (N-terminal biotin on a linker: ado-ado)
Sequence (Q8TEW0 582-685): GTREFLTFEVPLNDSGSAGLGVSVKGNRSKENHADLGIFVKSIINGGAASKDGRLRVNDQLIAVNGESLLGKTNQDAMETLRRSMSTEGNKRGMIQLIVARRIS

pKd | Binder
below the threshold | B1
3.51 | B2

biological target: SCRIB_1, Q14160; assay: holdup assay; design: key: below the threshold = too weak to quantify, mostly under pKd 3.1 to 4; details: plain residues with an end cap or a label only (N-terminal biotin on a linker: ado-ado)
Sequence (Q14160 718-814): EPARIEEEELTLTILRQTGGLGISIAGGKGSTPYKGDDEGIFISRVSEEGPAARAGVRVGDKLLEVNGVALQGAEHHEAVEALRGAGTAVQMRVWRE

pKd | Binder
below the threshold | B1
below the threshold | B2

biological target: SCRIB_3, Q14160; assay: holdup assay; design: key: below the threshold = too weak to quantify, mostly under pKd 3.1 to 4; details: plain residues with an end cap or a label only (N-terminal biotin on a linker: ado-ado)
Sequence (Q14160 999-1103): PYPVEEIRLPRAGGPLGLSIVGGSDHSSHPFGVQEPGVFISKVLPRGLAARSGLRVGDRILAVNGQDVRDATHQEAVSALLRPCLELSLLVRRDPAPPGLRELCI

pKd | Binder
below the threshold | B1
3.48 | B2

biological target: ARHGEF12, Q9NZN5-2; assay: holdup assay; design: key: below the threshold = too weak to quantify, mostly under pKd 3.1 to 4; details: plain residues with an end cap or a label only (N-terminal biotin on a linker: ado-ado)
Sequence (Q9NZN5 other isoform, or with tags, fused parts or gaps): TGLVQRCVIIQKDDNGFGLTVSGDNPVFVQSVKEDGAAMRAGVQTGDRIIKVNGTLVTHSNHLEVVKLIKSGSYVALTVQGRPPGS

pKd | Binder
below the threshold | B1
below the threshold | B2

biological target: T8, MPP6, Q9NZW5; assay: holdup assay; design: key: below the threshold = too weak to quantify, mostly under pKd 3.1 to 4; details: plain residues with an end cap or a label only (N-terminal biotin on a linker: ado-ado)

pKd | Binder
below the threshold | B1
below the threshold | B2

biological target: DLG4_3, P78352; assay: holdup assay; design: key: below the threshold = too weak to quantify, mostly under pKd 3.1 to 4; details: plain residues with an end cap or a label only (N-terminal biotin on a linker: ado-ado)
Sequence (P78352 306-403): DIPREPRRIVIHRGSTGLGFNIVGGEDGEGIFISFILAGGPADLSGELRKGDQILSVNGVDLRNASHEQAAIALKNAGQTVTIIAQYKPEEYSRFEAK

pKd | Binder
below the threshold | B1
below the threshold | B2
